Laboratory results as given in patent US6984501.

Biological target: human Kv2.1 (human) (UniProt Q14721)
Assay: cell-based or functional assay

V0.5 of the activation voltage curve (Boltzmann fit of G/Gmax), whole-cell patch clamp on CHO cells: 10.8 mV
inactivation time constant of the outward current, whole-cell patch clamp on CHO cells: 7.17 ms
Substance: human Kv2.1 (from UniProt Q14721 1-858)
